The source of these data is patent publication US7273747B2, “Cell having amplified signal transduction pathway responses and uses therefor” (Cadus Technologies, Inc., priority 1998, dated 2007).

This experiment has as its target T1, C5a receptor (Homo sapiens, UniProt P21730).
T1 construct: expressed in transfected cells; host or cells: Saccharomyces cerevisiae strain CY10103 (sibling strains CY13970/13971 and CY13974/13975), carrying gpa1(41)-Gαi2, with a FUS1p-lacZ reporter plasmid
T1 sequence (P21730 1-350): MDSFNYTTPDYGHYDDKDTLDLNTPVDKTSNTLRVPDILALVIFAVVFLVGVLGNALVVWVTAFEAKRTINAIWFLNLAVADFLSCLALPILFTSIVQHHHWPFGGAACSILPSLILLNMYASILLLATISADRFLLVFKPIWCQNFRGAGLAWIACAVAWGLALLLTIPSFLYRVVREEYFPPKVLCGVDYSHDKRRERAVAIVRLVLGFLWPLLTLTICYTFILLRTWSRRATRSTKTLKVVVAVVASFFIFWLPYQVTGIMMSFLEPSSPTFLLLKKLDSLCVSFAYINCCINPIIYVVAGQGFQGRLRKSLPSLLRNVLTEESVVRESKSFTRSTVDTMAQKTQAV
In words: FUS1p-lacZ β-galactosidase reporter assay in yeast expressing a heterologous C5a receptor. The experiment is classed as cell-based. The conditions noted are these: yeast strains carrying C5a receptor plasmid and FUS1p-lacZ reporter; 4 hours incubation with varying concentrations of ChaCha. The text has this: Yeast strains expressing heterologous GPCRs can be constructed as previously described (see e.g. WO 94/23025). In this example, to create a yeast strain expressing a heterologous GPCR and a Ste5 expression plasmid, yeast strain CY10103 (genotype MATa ste18 g6-3841 far1D1442 cyh2 tbt1-1 FUS1p-HIS3 can1 ste14::trp1::LYS2 ste3D1156 gpa1(41)-Gαi2 lys2 ura3 leu2 trp1 his3 ade2D3447 ade8D3457) was transformed by electroporation with a C5a receptor-bearing plasmid (Cp1303; genotype LEU2 PGKp-C5aR 2m-ori REP3 bla), a reporter plasmid (Cp1584; genotype bla TRP1 2m-ori FUS1p-lacZ), and plasmids that express either wild-type STE5p (Cp5373; genotype URA3 CEN6 ARSH4 bla FUS1p-STE5), a hyperactive STE5p mutant (Cp5643; genotype URA3 CEN6 ARSH4 bla FUS1p-STE5(S18R,T52M)), or no STE5p (Cp1015; genotype URA3 CEN6 ARSH4 bla). Triple transformants were selected on SC plates lacking uracil, tryptophan, and leucine. […]
On the technique in general: Reporter assays use an easily measured gene product as a stand-in for the process of interest.

Square brackets hold non-standard residues; d marks the D form. Ends that are not written are not given here. NMeF = CN[C@@H](Cc1ccccc1)C(=O)O; Cha = N[C@@H](CC1CCCCC1)C(=O)O; dCha = N[C@H](CC1CCCCC1)C(=O)O

Turning to “N-methyl-Phe-Lys-Pro-dCha-Cha-dArg ([NMeF]KP[dCha][Cha][dR]) [ChaCha, C5a receptor ligand; Cha is cyclohexylalanine]”, the “responsiveness to ligand, monitored as β-galactosidase activity (agonist activity at the C5a receptor)” value is given as “potent agonist”.
